The target of the data set is T1, recTZF-WT (GST-TEV-TTP TZF) (Mus musculus, UniProt P22893 93-165).
T1 sequence: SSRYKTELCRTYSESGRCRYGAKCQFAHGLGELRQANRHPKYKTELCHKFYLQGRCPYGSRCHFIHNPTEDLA
Description: EMSA.

Regarding AUUAUUUAUUAUUUAUUUAUUAUUUA (ssRNA) [Tnf-ARE], the binding result is recorded as “binds”.

Source of the values: doi:10.1101/2023.11.30.569392.
